Measured values from the supplement of paper PMC9170038.

Test system: MS2 coat protein
Test: apparent KD of MS2 coat protein; designed switch direction (-1 OFF switch, 1 ON switch): -1; higher = weaker reporter binding
Procedure, shortened: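 Transcription of designed RNA switches on Illumina chips was done by stalled E. coli RNA polymerase. SNAP-549-labelled MS2 coat protein was then titrated in doubling steps from 0.7 or 1.5 nM to 3 µM, with steps of 0.8–1.5 h at the lowest and 10–20 min at the highest concentration. The per-design median over clusters of curve-fitted normalised fluorescence is reported as apparent KD.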

[1] = input ligand: microRNA oligo, concentration not stated
[2] = Eterna round: R95, input ligand: FMN 200 uM
[3] = Eterna round: R95, input ligand: microRNA oligo, concentration not stated
[4] = Eterna round: R95, input ligand: none

Sequence | apparent KD of MS2 coat protein (input ligand: FMN 200 uM) | apparent KD of MS2 coat protein (input ligand: none) | apparent KD of MS2 coat protein [3] | further results
CUGUACUGAGGAUAUACAUGAGGAUCACCCAUGUGAUUCAGUGCACGCGUACGUGUACGUAGAAGGCAGUACAG [Mat - Exclusion 3 - Eli Mod - D37] (Eterna round: R97, puzzle: Exclusion 3) | 750 nM | 42.5 nM | – | –
CUGUACUGAGGAUAUACAUGAGGAUCACCCAUGUGCUUCAGCUAGGAAACUAGCAAAGGUAGAAGGCAGUACAG [Mat - Exclusion 3 - Eli Mod - D58] (Eterna round: R97, puzzle: Exclusion 3) | 109 nM | 14.5 nM | – | –
CUGUGCACGCUGCGAUCCUACAUGAGGAUCACCCAUGUGGUCUGGUGGCGUGGGUCACCGGACUUGGCUCGUCUUGG [salish99_S_TOV1_R5_078] (Eterna round: R97, puzzle: Sensor, turn-off variant 1) | 129 nM | 150 nM | – | –
CUGUGCACGCUGCGAUCCUACAUGAGGAUCACCCAUGUGGUCUGGUGGCGUGGGUCACCGGACUUGGCUCGUCUUGU [salish99_S_TOV1_R5_079] (Eterna round: R97, puzzle: Sensor, turn-off variant 1) | 79 nM | 90.7 nM | – | –
CUGUGCACGCUGCGGUCCUACAUGAGGAUCACCCAUGUGGUCUGGUGGCGUGGGUCACCGGACUUGGCUCGUCUUGU [salish99_S_TOV1_R5_064] (Eterna round: R97, puzzle: Sensor, turn-off variant 1) | 35.7 nM | 42.3 nM | – | –
CUGUGUAGACAGGAUAUGCUGUACAAAAGUACAGCAGAAGGGUCUACAUGAGGAUCACCCAUGUAUACUUCAUG [)mei Ex6 B24] (Eterna round: R97, puzzle: Exclusion 6) | 391 nM | 920 nM | – | –
CUGUGUAGACAGGAUAUGCUGUACAAAAGUACAGCAGAAGGGUCUACAUGAGGAUCACCCAUGUGUACCUCAUG [)mei Ex6 B26] (Eterna round: R97, puzzle: Exclusion 6) | 21.2 nM | 106 nM | – | –
CUGUUUUUCGCAGGAUAUGCUCCUCCAUUAUUUGCAGAAGGGCGUUAAACAUGAGGAUCACCCAUGUAUGGUAAUGACUAUUUC [JR_ExcNG1_Sub065] (Eterna round: R96, puzzle: Exclusion NG 1) | 125 nM | 40.7 nM | – | apparent KD of MS2 coat protein [1]: 43.6 nM
CUGUUUUUCGCAGGAUAUGCUUCUCCUUUAUUAGCAGAAGGGCGUUAAACAUGAGGAUCACCCAUGUAUGGUAAUGAUAUUUUC [JR_ExcNG1_Sub060] (Eterna round: R96, puzzle: Exclusion NG 1) | 145 nM | 55.8 nM | – | apparent KD of MS2 coat protein [1]: 52.3 nM
CUUAGACAUGAGGAUCACCCAUGUGAGGAUAUGAAAUUAAUUAAUUAUUAAUUAUUAAUCAGAAGGCACAUAUG [Mat - Mod of Hyphema D38] (puzzle: Exclusion 1) | – | – | 43.6 nM | apparent KD of MS2 coat protein [2]: 79.8 nM; apparent KD of MS2 coat protein [4]: 41.3 nM
CUUAGACAUGAGGAUCACCCAUGUGAGGAUAUGAUGCGAAUAAGUAAGUAAUAAAGCAUCAGAAGGCACAUAUG [Mat - Mod of Hyphema D28] (puzzle: Exclusion 1) | – | – | 186 nM | apparent KD of MS2 coat protein [2]: 235 nM; apparent KD of MS2 coat protein [4]: 222 nM
CUUAGACAUGAGGAUCACCCAUGUGAGGAUAUGAUGCGAUCGUCGAAAGACGAUAGCAUCAGAAGGUACAAAUG [Fiskers Ex 1 - 21] (puzzle: Exclusion 1) | – | – | 90.5 nM | –
CUUAUGUGAGGAUAUCAGUAGUGAUACGAUAGUAUUACUGCUGAGAAGGUACAUGAGGAUCACCCAUGUUCCUC [Exclusion 4 - Mod Omei Ex4 344 mod 4 v.1] (puzzle: Exclusion 4) | – | – | 16.2 nM | –
CUUAUGUGAGGAUAUGCCUGGCCGUGAGGCCAAAUUUAUAAGCAGAAGGCACAUGAGGAUCACCCAUGUGCGGG [jl-ex4-4.69 ViennaUCT mod] (Eterna round: R97, puzzle: Exclusion 4) | 115 nM | 317 nM | – | –
CUUCACCCACCAGAGCUCACCCACAUACCAGCUCUGGUGACAUGAGGAUCACCCAUGUUUUUUGCCCGUCUUAUCUU [Intibima] (Eterna round: R96, puzzle: Sensor v3, turn-off variant 2) | 65 nM | 79.1 nM | – | apparent KD of MS2 coat protein [1]: 218 nM
CUUCACCCACCAGAGCUCACCCACAUACCAGCUCUGGUGACAUGAGGAUCACCCAUGUUUUUUGCCCGUCUUAUCUU [Intibima] (puzzle: Sensor v3, turn-off variant 2) | – | – | 189 nM | apparent KD of MS2 coat protein [2]: 41.3 nM; apparent KD of MS2 coat protein [4]: 46.8 nM

Sequence | apparent KD of MS2 coat protein (input ligand: FMN 200 uM) | apparent KD of MS2 coat protein (input ligand: none) | apparent KD of MS2 coat protein [3] | further results
CUUCACCCACCAGAGCUCACCCACAUACCUACUCAGGUGACAUGAGGAUCACCCAUGUUUUUUGCCCGUCUUAUCUU [Vexebedi] (Eterna round: R96, puzzle: Sensor v3, turn-off variant 2) | 34.4 nM | 37.5 nM | – | apparent KD of MS2 coat protein [1]: 174 nM
CUUCACCCACCAGAGCUCACCCACAUACCUACUCAGGUGACAUGAGGAUCACCCAUGUUUUUUGCCCGUCUUAUCUU [Vexebedi] (puzzle: Sensor v3, turn-off variant 2) | – | – | 216 nM | apparent KD of MS2 coat protein [2]: 28.3 nM; apparent KD of MS2 coat protein [4]: 30.4 nM
CUUCGUAUAGAGGAUAUAGGAUACGAAAGUGUCCUAGAAGGCUGUACAUGAGGAUCACCCAUGUACUUCAGAUC [Exclusion 6 - B - 14:e] (puzzle: Exclusion 6) | – | – | 11.7 nM | –
CUUGAGUGACAAGCUUUUUGCUCGUCUGUUAUUGAUGCUACAUGAGGAUCACCCAUGUUUAAGAUGUGUGAGGAUGG [JR_SV3TOV2_Sub054] (puzzle: Sensor v3, turn-off variant 2) | – | – | 48.9 nM | apparent KD of MS2 coat protein [2]: 36.7 nM; apparent KD of MS2 coat protein [4]: 35.6 nM
CUUGUUUAUGUAGGAUAUGCCUGGCGUGCCUUUGCAGAAGGACAUGAGGAUCACCCAUGUAACAUGAGGCUAACCCUUGUCGCC [salish99_ExNG1_r04_118] (Eterna round: R96, puzzle: Exclusion NG 1) | 86.7 nM | 96 nM | – | apparent KD of MS2 coat protein [1]: 65.7 nM
CUUUACAUGCUAAGAUCCUACAUGAGGAUCACCCAUGUGGUCCGGUGACGUGAGUCACCGGACUUAGCUCGUCUUGU [salish99_S_TOV1_R5_097] (Eterna round: R97, puzzle: Sensor, turn-off variant 1) | 83.2 nM | 119 nM | – | –
CUUUAGCAGGUAGGAUAUACGAAGUGUCGGCGAGUAGAAGGACCUGCGAUCCACUUGAGGAUCACCCAAGUUCGCAGGAGAACA [Mutated MS2 EX1.10] (Eterna round: R96, puzzle: Exclusion NG 1) | 103 nM | 50.8 nM | – | apparent KD of MS2 coat protein [1]: 35.6 nM
CUUUCGUGAGGAUAUGUGGCUUCGAUCGUGAGAUCGAGGCAACAGAAGGCACAUGAGGAUCACCCAUGUUCCUC [salish99_ex4_r4_207] (Eterna round: R97, puzzle: Exclusion 4) | 546 nM | 40.5 nM | – | –
CUUUGAUGAGGAUAUCGAGGUUAGUACAUGAGGAUCACCCAUGUUAUCCAGGUGUCGGUUCGAGAAGGUAUUGGAC [LRO-Ex5-17] (puzzle: Exclusion 5) | – | – | 15.6 nM | –
CUUUUGGGAGGAUAUUAGUAGUAAAUAAAUAAAAUUACUACUGAGAAGGCACAUGAGGAUCACCCAUGUUCCUC [salish99_ex4_r3_071] (puzzle: Exclusion 4) | – | – | 19.7 nM | –
CUUUUGUGAGGAUAUCAGUAGUAAAAAAAUAAAAUUAUUACUGAGAAGGCACAUGAGGAUCACCCAUGUUCCUC [salish99_ex4_r3_028] (puzzle: Exclusion 4) | – | – | 36.3 nM | –
CUUUUGUGAGGAUAUCAGUAGUAAAAAAAUUAAAUUACUACUGAGAAGGCACAUGAGGAUCACCCAUGUUCCUC [salish99_ex4_r3_022] (puzzle: Exclusion 4) | – | – | 36.4 nM | –
CUUUUGUGAGGAUAUCAGUAGUAAAUAAAUAAAAUUACUACUGAGAAGGCACAUGAGGAUCACCCAUGUUCCUC [salish99_ex4_r3_015] (puzzle: Exclusion 4) | – | – | 37.4 nM | –
CUUUUGUGAGGAUAUCUGGCUUCGAUCGUGAGAUCGAGGCUAGAGAAGGCACAUGAGGAUCACCCAUGUUCCUU [jl-ex4-4.05 salish99 mod] (Eterna round: R97, puzzle: Exclusion 4) | 66.1 nM | 19.9 nM | – | –
CUUUUGUGAGGAUAUUAGUAGUAAAAAAAUAAAAUUACUACUGAGAAGGCACAUGAGGAUCACCCAUGUUCCUC [salish99_ex4_r3_036] (puzzle: Exclusion 4) | – | – | 33.2 nM | –
CUUUUGUGAGGAUAUUAGUAGUAAAAAAAUAAAAUUACUACUGAGAAGGCACAUGAGGAUCACCCAUGUUCCUU [salish99_ex4_r3_039] (puzzle: Exclusion 4) | – | – | 14.1 nM | –
